{"source": "patent US20190002500A1", "about": "“NOVEL a4B7 PEPTIDE DIMER ANTAGONISTS” (Protagonist Therapeutics, Inc., priority 2013, published 2019)", "key": {"FIG. 3": {"test": "FIG. 3", "from_the_text": "Table printed on a drawing sheet, FIG. 3\nFirst reader's note: The sequence is split into one residue per column (positions 4-11 plus one unnumbered column), and SEQ ID 39 is printed twice."}, "[1]": {"test": "Simulated Intestinal Fluid (SIF) Stability Assay", "format": "in vitro ADME", "conditions": "for stability in simulated intestinal fluids (SIF): substitution of Cys with Pen, compared to SEQ ID NO: 46 with Cys", "description": "Simulated Intestinal Fluid (SIF) Stability Assay\nStudies were carried out in simulated intestinal fluid (SIF) to evaluate gastric stability of the dimer molecules of the instant invention. SIF was prepared by adding 6.8 g of monobasic potassium phosphate and 10.0 g of pancreatin to 1.0 L of water. After dissolution, the pH was adjusted to 6.8 using NaOH. DMSO stocks (2 mM) were first prepared for the test compounds. Aliquots of the DMSO solutions were dosed into 6 individual tubes, each containing 0.5 mL of SIF, which had been pre-warmed to 37° C.\nThe final test compound concentration was 20 μM. The vials were kept in a benchtop Thermomixer® for the duration of the experiment. At each timepoint (0, 5, 10, 20, 40, and 60 minutes), 1.0 mL of acetonitrile containing 1% formic acid was added to one vial to terminate the reaction. Samples were stored at 4° C. until the end of the experiment. After the final timepoint was sampled, the tubes were mixed and then centrifuged at 3,000 rpm for 10 minutes. Aliquots of the supernatant were removed, diluted 1:1 into distilled water containing internal standard, and analyzed by LCMS/MS. Percent remaining at each timepoint was calculated based on the peak area response ratio of test to compound to internal standard. Time 0 was set to 100%, and all later timepoints were calculated relative to time 0. Half-lives were calculated by fitting to a first-order exponential decay equation using Graphpad. A small sampling of the results of these studies is provided and discussed in connection FIG. 3, above."}}, "note": "Where a SMILES comes first, the peptide text is derived from it. Bridges are numbered along the chain shown (N, C = ends). Where no end group is shown, it is not given here. [ ]: non-standard residue; d: D form. NMeR = CN[C@@H](CCCNC(=N)N)C(=O)O; Pen = CC(C)(S)[C@H](N)C(=O)O", "data": [{"molecule": "CC(=O)N[C@H]1CSSC[C@@H](C(N)=O)NC(=O)[C@H](CC(C)C)NC(=O)[C@H]([C@@H](C)O)NC(=O)[C@H](CC(=O)O)NC(=O)[C@H](CO)NC(=O)[C@H](CCCNC(=N)N)NC1=O", "note": "[compound 39, Ac-C R S D T L C-NH2] (Ac-CRSDTLC-NH2; disulfide 1-7)", "values": [{"measurement": "SIF Stability (Half-Life, Min)", "setting": "FIG. 3", "value": "<1", "unit": "min"}]}, {"molecule": "SEQ ID NO: 74: integrin antagonist homodimer of monomer subunit SEQ ID NO: 74, Cys substituted with Penicillamine (Pen) (C[NMeR]SDTL[Pen]E[dK]; disulfide 1-7; also: homodimer, link not given here)", "values": [{"measurement": "stability in simulated intestinal fluids (SIF)", "setting": "[1]", "value": "increased stability significantly"}]}, {"molecule": "SEQ ID NO: 46: integrin antagonist homodimer of monomer subunit SEQ ID NO: 46 (Cys, N-terminally dimerized); N(alpha)Methylated and non-methylated variations (CRSDTLC; disulfide 1-7; not fully specified (residue 2); also: homodimer linked at N-termini) [listing 1 of 2 here]", "values": [{"measurement": "half-life in SIF", "setting": "[1]; substitution of arginine with N-Me-Arg, N(alpha)Methylated vs non-methylated variation", "value": "increased half-life substantially"}]}, {"molecule": "SEQ ID NO: 46: integrin antagonist homodimer of monomer subunit SEQ ID NO: 46 (Cys, N-terminally dimerized); N(alpha)Methylated and non-methylated variations (CRSDTLC; disulfide 1-7; not fully specified (residue 2); also: homodimer linked at N-termini) [listing 2 of 2 here]", "values": [{"measurement": "SIF Stability (Half-Life, Min)", "setting": "FIG. 3", "value": 73, "unit": "min"}]}, {"molecule": "SEQ ID NO: 55: integrin antagonist homodimer of monomer subunit SEQ ID NO: 55, Cys substituted with Penicillamine (Pen) (C[NMeR]SDTL[Pen][dK]; disulfide 1-7; also: homodimer, link not given here)", "values": [{"measurement": "stability in simulated intestinal fluids (SIF)", "setting": "[1]", "value": "increased stability significantly"}]}]}
